Assay results reported in paper PMC4434323.

Each sequence was assayed against odd-2 (C34H3.2) (Caenorhabditis elegans) (UniProt Q9N5X6).
odd-2 (C34H3.2) (Caenorhabditis elegans), sequence (Q9N5X6 74-252): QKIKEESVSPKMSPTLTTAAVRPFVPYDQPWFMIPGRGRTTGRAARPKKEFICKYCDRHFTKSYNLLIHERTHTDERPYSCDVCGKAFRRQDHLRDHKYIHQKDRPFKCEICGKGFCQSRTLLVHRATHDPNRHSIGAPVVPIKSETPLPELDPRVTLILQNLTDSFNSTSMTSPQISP
“CGCTACCG (double strand) [8-mer CGCTACCG]” gave a binding signal (PBM E-score (-0.5 to 0.5)) of 0.488. In the case of “CCGGTAGC (double strand) [8-mer CCGGTAGC]”, the binding signal (PBM E-score (-0.5 to 0.5)) is reported as 0.496. “CAGTAGCA (double strand) [8-mer CAGTAGCA]” showed a binding signal (PBM E-score (-0.5 to 0.5)) of 0.495. With “AACAGTAG (double strand) [8-mer AACAGTAG]” the binding signal (PBM E-score (-0.5 to 0.5)) was 0.492. For “ACAGTAGC (double strand) [8-mer ACAGTAGC]”, the binding signal (PBM E-score (-0.5 to 0.5)) was 0.499. “CAGTAGCC (double strand) [8-mer CAGTAGCC]” showed a binding signal (PBM E-score (-0.5 to 0.5)) of 0.492. “AGCTACCG (double strand) [8-mer AGCTACCG]” was tested, and the binding signal (PBM E-score (-0.5 to 0.5)) was 0.492. In the case of “ACGGAAGC (double strand) [8-mer ACGGAAGC]”, the binding signal (PBM E-score (-0.5 to 0.5)) is reported as 0.485. “CGGTAGCC (double strand) [8-mer CGGTAGCC]” gave a binding signal (PBM E-score (-0.5 to 0.5)) of 0.485. With “ACGGTAGC (double strand) [8-mer ACGGTAGC]” the binding signal (PBM E-score (-0.5 to 0.5)) was 0.498.

Each sequence was assayed against T1, F10B5.3 (F10B5.3) (Caenorhabditis elegans) (UniProt Q09534).
T1 sequence: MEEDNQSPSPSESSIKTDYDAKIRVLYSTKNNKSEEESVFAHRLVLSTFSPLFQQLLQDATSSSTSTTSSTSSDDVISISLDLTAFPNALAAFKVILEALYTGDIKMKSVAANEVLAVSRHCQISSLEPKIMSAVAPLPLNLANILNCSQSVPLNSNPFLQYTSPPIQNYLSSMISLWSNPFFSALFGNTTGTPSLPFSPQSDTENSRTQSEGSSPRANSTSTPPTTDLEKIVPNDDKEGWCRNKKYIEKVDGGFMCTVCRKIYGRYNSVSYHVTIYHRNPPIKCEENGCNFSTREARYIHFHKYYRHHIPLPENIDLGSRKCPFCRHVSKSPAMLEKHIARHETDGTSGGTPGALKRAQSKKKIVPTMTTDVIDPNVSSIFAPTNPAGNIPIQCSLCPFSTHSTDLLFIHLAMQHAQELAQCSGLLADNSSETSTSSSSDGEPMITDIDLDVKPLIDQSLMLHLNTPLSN
Sequence “GTTCCAGA (double strand) [8-mer GTTCCAGA]” has a binding signal (PBM E-score (-0.5 to 0.5)) of 0.473. Sequence “TCTGGAAA (double strand) [8-mer TCTGGAAA]” has a binding signal (PBM E-score (-0.5 to 0.5)) of 0.487. Work on “TCCTGGAA (double strand) [8-mer TCCTGGAA]” yielded a binding signal (PBM E-score (-0.5 to 0.5)) of 0.491. “TCCACGAA (double strand) [8-mer TCCACGAA]” gave a binding signal (PBM E-score (-0.5 to 0.5)) of 0.476. Sequence “TACACGAA (double strand) [8-mer TACACGAA]” has a binding signal (PBM E-score (-0.5 to 0.5)) of 0.476. Sequence “TTCGAGAA (double strand) [8-mer TTCGAGAA]” has a binding signal (PBM E-score (-0.5 to 0.5)) of 0.477. “TTCCGGAA (double strand) [8-mer TTCCGGAA]” showed a binding signal (PBM E-score (-0.5 to 0.5)) of 0.49. For “ATTTCCAG (double strand) [8-mer ATTTCCAG]”, the binding signal (PBM E-score (-0.5 to 0.5)) was 0.473. With “TCGTGGAA (double strand) [8-mer TCGTGGAA]” the binding signal (PBM E-score (-0.5 to 0.5)) was 0.483. “CCTGGAAA (double strand) [8-mer CCTGGAAA]” was tested, and the binding signal (PBM E-score (-0.5 to 0.5)) was 0.48. “TCCTCGAA (double strand) [8-mer TCCTCGAA]” gave a binding signal (PBM E-score (-0.5 to 0.5)) of 0.481. With “CTGGAAAA (double strand) [8-mer CTGGAAAA]” the binding signal (PBM E-score (-0.5 to 0.5)) was 0.475. In the case of “CCTCGAAA (double strand) [8-mer CCTCGAAA]”, the binding signal (PBM E-score (-0.5 to 0.5)) is reported as 0.474.

Each sequence was assayed against T2, che-1 (C55B7.12) (Caenorhabditis elegans) (UniProt Q966L8).
T2 sequence: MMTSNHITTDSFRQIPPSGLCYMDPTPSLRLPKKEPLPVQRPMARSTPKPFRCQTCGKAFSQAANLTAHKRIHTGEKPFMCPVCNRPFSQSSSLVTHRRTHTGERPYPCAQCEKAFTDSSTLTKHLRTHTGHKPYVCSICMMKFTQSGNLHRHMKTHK
In the case of “GGAAGCCC (double strand) [8-mer GGAAGCCC]”, the binding signal (PBM E-score (-0.5 to 0.5)) is reported as 0.495. “AGAAGCCC (double strand) [8-mer AGAAGCCC]” showed a binding signal (PBM E-score (-0.5 to 0.5)) of 0.491. With “AAGAAGCC (double strand) [8-mer AAGAAGCC]” the binding signal (PBM E-score (-0.5 to 0.5)) was 0.493. “AGGCTTCC (double strand) [8-mer AGGCTTCC]” was tested, and the binding signal (PBM E-score (-0.5 to 0.5)) was 0.491. “GGGCTTCA (double strand) [8-mer GGGCTTCA]” showed a binding signal (PBM E-score (-0.5 to 0.5)) of 0.493. In the case of “AGGAAGCC (double strand) [8-mer AGGAAGCC]”, the binding signal (PBM E-score (-0.5 to 0.5)) is reported as 0.49. For “AGAAGCCA (double strand) [8-mer AGAAGCCA]”, the binding signal (PBM E-score (-0.5 to 0.5)) was 0.489. “AAGGCTTC (double strand) [8-mer AAGGCTTC]” showed a binding signal (PBM E-score (-0.5 to 0.5)) of 0.494. “GAAGCCCC (double strand) [8-mer GAAGCCCC]” showed a binding signal (PBM E-score (-0.5 to 0.5)) of 0.492. For “AGGGCTTC (double strand) [8-mer AGGGCTTC]”, the binding signal (PBM E-score (-0.5 to 0.5)) was 0.497. “ATGAAGCC (double strand) [8-mer ATGAAGCC]” showed a binding signal (PBM E-score (-0.5 to 0.5)) of 0.489. In the case of “GGCTTCCC (double strand) [8-mer GGCTTCCC]”, the binding signal (PBM E-score (-0.5 to 0.5)) is reported as 0.497. Work on “ATGGCTTC (double strand) [8-mer ATGGCTTC]” yielded a binding signal (PBM E-score (-0.5 to 0.5)) of 0.495. “GGAAGCCA (double strand) [8-mer GGAAGCCA]” was tested, and the binding signal (PBM E-score (-0.5 to 0.5)) was 0.494.
